The source of these data is PMC5703867, “Development of Novel Promiscuous Anti-Chemokine Peptibodies for Treating Autoimmunity and Inflammation” (Frontiers in Immunology, 2017).

The assay addresses T1, CCL2 (human, UniProt P13500 24-99).
T1 construct: CCL2, human, recombinant; source: bought: PeproTech
The assay is described as follows: ELISA; chemokine coated on maxisorp plates (0.1-1.0 µg/ml in 0.1 M NaHCO3, pH 8.6), BSA block, biotinylated synthetic peptides in TBST-BSA for 45 min at RT, detected with HRP-streptavidin or AP-anti-biotin; fold binding at 10 and 100 ng/ml peptide. The following applies: both partners purified.

Where no end group is shown, it is not given here. The star is where a group is joined. Biotin = O=C1N[C@H]2[C@H](CS[C@H]2CCCCC(=O)*)N1

T1 sequence (P13500 24-99): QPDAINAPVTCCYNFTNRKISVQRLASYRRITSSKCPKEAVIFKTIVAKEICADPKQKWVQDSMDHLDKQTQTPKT

B1: BKT130 biotinylated synthetic peptide (peptide)
peptide: SIPSHSIHSAKAGGGSK(Biotin)G
modifications: also: biotin at C-terminus, format X12GGGSK-biotin-G
notes: BKT130 peptide; C-terminal tail of the linear peptide format X12GGGSK-biotin-G; also called BTK130; source: synthetic peptide (Weizmann Institute of Science)
Consider B1, for which the binding result is “binds”.

B2: BKT120 biotinylated synthetic peptide (peptide)
peptide: LDYPIPQTVLHHGGGSK(Biotin)G
modifications: also: biotin at C-terminus, format X12GGGSK-biotin-G
notes: BKT120 peptide; C-terminal tail of the linear peptide format X12GGGSK-biotin-G; also called BTK120; source: synthetic peptide (Weizmann Institute of Science)
Take B2: the binding result is “binds”.
